Consider three molecules from paper PMC4682084 (Scientific Reports, 2015).

Where a chain is given by its changes, count along the chain named.

Assay [1] addresses fully human monoclonal agonistic anti-TRAIL-R2 antibody KMTR2 (human).
Assay [2] has as its target T1, ecTRAIL-R2:Fc fusion protein (human, UniProt O14763).
T1 construct: TRAIL receptor 2 (TRAIL-R2, DR5), human, extracellular region, residues Ala54-Lys181; also called ecTRAIL-R2 fused with Fc; soluble TRAIL-R2 fused with the Fc region of IgG; source: CHO cells, purified (HiTrap rProtein A FF); not shown: Fc (human IgG1), C-terminal, kept
Put plainly: SEC; antibody mixed with ecTRAIL-R2:Fc in PBS at a molar ratio of 1:1, 30 min 37 °C; Superdex 200 10/300 GL in D-PBS(-). To be noted: both partners purified. For orientation: In gel filtration, larger molecules generally elute earlier.

The target in assay [3] is T2, endogenous TRAIL-R2 in Colo205 cells (human (endogenous in Colo205), UniProt O14763).
T2 construct: TRAIL receptor 2 (TRAIL-R2, DR5), endogenous on the human colorectal adenocarcinoma cell line Colo205; also called DR5; membrane TRAIL-R2; source: endogenous, on Colo205 cells
Kind of assay: immunostaining of cells or tissue; Colo205 cells incubated with gel filtration fractionated monomeric antibody, 100 ng/mL, 1.5 h 37 °C; Alexa 488-labeled anti-human IgG Fab; confocal microscopy. The following applies: one partner purified.

The target of assay [4] is T3, extracellular region of TRAIL-R2 (ecTRAIL-R2) (human, UniProt O14763).
T3 construct: TRAIL receptor 2 (TRAIL-R2, DR5), human, extracellular region, residues Ala54-Lys181; also called DR5; source: CHO cells as ecTRAIL-R2:Fc fusion, purified (rProtein A), digested with enterokinase, cation-exchange chromatography; not shown: Fc (human IgG1), C-terminal, cleaved
Kind of assay: SEC-MALS; ecTRAIL-R2 mixed with excess KMTR2-Fab, RT 1 h; Superdex 200 HR 10/30, 20 mM HEPES pH 7.2, 0.2 M NaCl; multi-angle light scattering (mini-DAWN). To be noted: both partners purified.

Take “fully human monoclonal agonistic anti-TRAIL-R2 antibody KMTR2”: the inhibition of the proliferation of Colo205 cells (MTS), 1-100 ng/mL, without cross-linking reagent in assay [1] fell in the range of 6 to 7 ng/mL.

B1: KMTR2 LkN53R mutant (Asn53 to Arg in the light kappa chain) (antibody, V domains shown)
VH: QVQLVQSGAEMKKPGASVKVSCKTSGYTFTNYKINWVRQAPGQGLEWMGWMNPDTDSTGYPQKFQGRVTMTRNTSISTAYMELSSLRSEDTAVYYCARSYGSGSYYRDYYYGMDVWGQGTTVTVSS
VL: EIVLTQSPATLSLSPGERATLSCRASQSVSSYLAWYQQKPGQAPRLLIYDASRRATGIPARFSGSGSGTDFTLTISSLEPEDFAVYYCQQRSNWPLTFGGGTKVEIK
notes: as the heavy chain of m5; Fab part (Gln1-Ser226) in PDB 3X3F and 3X3G; as the light kappa chain of m5 (Glu1-Cys214 in PDB 3X3F and 3X3G) with Asn53 changed to Arg; Whole IgG made from the N5KG4-KMTR2 vector by site-directed mutagenesis; copies: 2 + 2
Consider B1, for which the binding result in assay [2] and in assay [3] was “binds” each time.

B2: Fab fragment derived from KMTR2 (KMTR2-Fab) (Fab, V domains shown)
VH: B1 VH
VL: B1 VL with R53N
notes: heavy chain of KMTR2-Fab; light kappa chain of KMTR2; Fully human monoclonal antibody from KM mice; source: papain digestion of recombinant KMTR2, purified by cation-exchange chromatography
A word on the stoichiometry N: it is a count of units in the complex or per binding partner. Take B2: the “stoichiometry N” value in assay [4] turned out to be 1.
